Groups on a side chain read outwards from the residue. No end group written: not given here. *: point of attachment. DSPE = distearoyl phosphatidyl ethanolamine, CCCCCCCCCCCCCCCCCC(=O)OC[C@H](COP(=O)(O)OCCN*)OC(=O)CCCCCCCCCCCCCCCCC; maleimide = Maleimide, used for thiol-reactive attachment of PEG to a Cys (thioether bond)
What follows are binders tested against human GLP-1 receptor (human, UniProt P43220 24-463) (assay: cell-based or functional assay).
In the case of HVEGTFTSDVSSYLEGQAAKEFIAWLVKGRGC([maleimide-PEG 3.4 kDa-DSPE]) [V8C38-3.4 kDa DPSE-PEG], the “in vitro potency (EC50) in the CRE-BLAM reporter assay on HEK-293 cells expressing the human GLP-1 receptor, relative to V8GLP-1 equal to 100%” value is reported as 18%. HVEGTFTSDC([maleimide-PEG 40 kDa branched])SSYLEEQAAKEFIAWLVKGRG [V8E22C16-40 kDa PEG] was tested, and the “in vitro potency (EC50) in the CRE-BLAM reporter assay on HEK-293 cells expressing the human GLP-1 receptor, relative to V8GLP-1 equal to 100%” value was 0.7%. HVEGTFTSDC([maleimide-PEG 3.4 kDa-DSPE])SSYLEGQAAKEFIAWLVKGRG [V8C16-3.4 kDa DPSE-PEG] was tested, and the “in vitro potency (EC50) in the CRE-BLAM reporter assay on HEK-293 cells expressing the human GLP-1 receptor, relative to V8GLP-1 equal to 100%” value was 4%. HVEGTFTSDVSSYLEGQAAKEFIAWLVKGRGC([maleimide-PEG 40 kDa branched]) [V8C38-40 kDa PEG] was tested, and the “in vitro potency (EC50) in the CRE-BLAM reporter assay on HEK-293 cells expressing the human GLP-1 receptor, relative to V8GLP-1 equal to 100%” value was 3%.

From US20080113905A1 (Eli Lilly, published 2008)
